We go through three molecules from PMC6943125.

For data set [1], the target named is T1, DHX30N (human, UniProt Q7L2E3-3 1-152).
T1 sequence: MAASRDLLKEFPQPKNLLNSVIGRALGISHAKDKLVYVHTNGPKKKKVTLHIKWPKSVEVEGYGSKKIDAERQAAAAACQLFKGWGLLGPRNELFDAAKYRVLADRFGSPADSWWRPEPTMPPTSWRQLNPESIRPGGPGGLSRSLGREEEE
Kind of data set: fluorescence polarization; 30 nM RNA, pH 6.0 NMR buffer; EMSA: 50 mM Tris-HCl pH 7.5, 150 mM NaCl, 10% glycerol, on ice, 1% agarose 4 C; FP and NMR: pH 6.0 NMR buffer (composition not in material); Ni-NTA: 20 mM Na phosphate pH 6.6, 100 mM NaCl, 20 mM beta-mercaptoethanol, 1% glycerol, room temperature. The settings on record: protein: recombinant.

For data set [2], the target named is NS1 RBD (Influenza A virus Ud, UniProt P03495 1-73). Kind of data set: NMR; equimolar dsRNA, pH 6.0 NMR buffer. To be noted: protein: recombinant; tags: none (SUMO-His6 cleaved); chain copies: 2.
NS1 RBD, sequence (P03495 1-73): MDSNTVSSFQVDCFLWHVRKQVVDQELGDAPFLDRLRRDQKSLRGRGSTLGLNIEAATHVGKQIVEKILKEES

What is called Kd is the free concentration of one partner at which half of the binding sites on the other are occupied at equilibrium, for simple one-to-one binding.

Take CCAUCCUCUACAGGCG (ssRNA) [16-nt sense ssRNA]: the Kd in data set [1] (label: 5' FAM) is about 0.5 µM.

B1: 16-bp dsRNA (dsRNA)
RNA 1: CCAUCCUCUACAGGCG
RNA 2: CGCCUGUAGAGGAUGG
As to B1, the Kd in data set [1] (label: FAM (sense and antisense)) was about 0.04 µM.

B2: 33-bp dsRNA (dsRNA)
RNA 1: CGAGCUCGCCCGGGGAUCCUCUAGAGUCGACCUGC
RNA 2: CUGCAGGUCGACUCUAGAGGAUCCCCGGGCGAGCU
Turning to B2, in data set [2], the binding result is “binds”.
